In the nanobody polyreactivity screen of Harvey et al. (2022):

Experiment: yeast display, Sf9 membrane polyspecificity reagent, FACS + sequencing; frameworks hold sequencing errors
Summary of the method: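 Galactose induction of a Saccharomyces cerevisiae BJ5465 synthetic nanobody display library ran 36–48 hours. The cells were then stained for 1 hour at 4 °C with 10% biotinylated, detergent-solubilized Sf9 membrane reagent, pulled down on streptavidin microbeads and FACS-sorted into low and high (top ~1%) gates on expression and reagent-binding fluorescence. Labels for polyreactivity follow the gate of origin.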

Row | Sequence | polyreactivity (PSR sort gate)
1 | QVQLVESGGGLVQAGGSLRLSCAASGSTFNPYAMGWYRQAPGKERELVATITWRGTSTYYADSVKGRFTISRDNAKNTVYLQMNSLKPEDTPVYYCAARVRYKYDYWGQGTQVTVSS | high polyreactivity
2 | QVQLVESGGGLLQAGGSLRLSCAASGRTFNYYAMGWYRQAPGKERELVAAISRSGGSTYYADSVKGRFTISRDNAKNTVFLQMNSLKPEDTAVYYCKSDRGSIYGWGQGTQVTVSS | high polyreactivity
3 | QVQLVESGGGLVQAGGSLRISCAASGRIYVYNVMGWSRQAPGKETELVAAISWGTGSTYADSVKGRFTISRDNAKNTVYLQMNSLKPEDTAVYYCAAAADYYYDHDYWGQGTQVTVSS | low polyreactivity
4 | HLQLVESGGGLVQAGGSLRLSCAASGSILNFYAMGWYRQAPGTERELVAAISSSGGSTYYADSVKGRFTISRDNAKNTVYLQMNILQPEDTAVYYCNADYSPSSDSEYGYWGQGTQVTVSS | low polyreactivity
5 | QVQLVESGGGLVQARGSLRLSCAASGSIFGKNVMGWYRQAPGKERELVAAISRSGGRTYYADSVKGRFTISRDNAKNTVYLQMNSLKPEDTAVYYCAADGQPIGQQTYDYWGQGTQVTVSS | high polyreactivity
6 | QVQLVESGGRLVQAGGSLRLSCAASGSIFFLYAKGWYRQAPGKERELVAAISGGGGSTYYADSVKGRFTISRDIAKYTVYLLMNSLKPEDTAVYYCAALSKTRGGFWGQGTQVTVSS | high polyreactivity
7 | QVQLVESGGGLVQAGGSLRLSCAASGSTFYAYAMGWYRQAPGKERELVASITYSGVSTYYADSVKGRFTISRDNAKNTVYLQMNSLKPEDTAVYYCATDYSHITYSHYRWWYNEYEYWGQGTQVTVSS | low polyreactivity
8 | QVQLVESGGGLVQAGGSLRLSCAASGRTFQNNAMGWYRQAPGKERELVAAISRSGASTYYADSVKGRFTISRDNAKNTVYLQMNSLKPEDTAVYYCAARYQRTAYDYWGQGTQVTVSS | low polyreactivity
9 | QVQLVESGGGLVQAGGSLRLSCAASGNIFNTNARGWYRQAPGKDTELVAAISWNTGSTYADSVKGRFTISRDNAKKTVDLPMNSLKPEDTAVYYCAADRSHAYYRKNRVDYWGQGTQVTVSS | low polyreactivity
10 | QVQLVESGGRLVQAGGSLRLSCAASGYTYDRYAMGWYRQAPGKERQLVAAISSSGTSTYYADSVKGRFTISRDNEKNTVYLQMNSLKPEDTAVYYCAATRLKLKFAYWGQGTQVTVSS | high polyreactivity
11 | QVQLVESGGCLVQAGGSLRLSCAATGFIFYPDAKGWYRQAPGTEMELVAVITSGGRTYYADSVKGRFTITRDNAKNTVYLQMNSLKPEDTAVYYCAALYLGLWPTDIFDYWGQGTQVTVSS | low polyreactivity
12 | QVQLQESGRRPGAAGGSPRMSCAASGNIFWVAVMGRYRQAPGKERELGASIGFGCTTYYADSVKCRFTISRDNAKNTVYLQMISLKPEDTAVYYCAAPHYDWGELDYWGQGTQVPVSS | low polyreactivity
13 | QVQLVESRGGLVQAGGSLRLSCAASGSTFKPNAMGWYRPAPGKERELVAAITSGSTYYADSVKGRFTISRDNAKNTVYLQMNSLKPEDTAVYYCATSFRGKSPYRNSGSYYYWGQGTQVTVSS | high polyreactivity
14 | QGQLVESGGGLVQAGGTLRLSCAASGSTFAVYVMGGYRQAPGTERELVAAISTSGARTYYADSVKGRFTISRDNAKNTVYLQMNSLKPEDTAVYYCAARSNALFRFDYWGQGTQVTVSS | high polyreactivity
15 | QVQLVESGGGLVQAGGSLRLSCAASGSTFHPYAMGWYRQPPGKASELVAAINWRVGSTYYADSVKGRFTISRDNAKNTVYLQMTSQIPEDTAVYYCAVSYMATLGRSRYDYWGQGTQVTVSS | low polyreactivity
16 | QVQLVESGGGLVQAGGSLRLSCAASGISYTSYAMGWYRQAPGKERELVAAISSSGGSTYYADSVKGRFTISRDNAKNTVYLQMNSLKPEDTAVYYCIARPRSRSPRVEYDYWGQGTQVTVSS | high polyreactivity
17 | QVQLVESGGGLVQAGGSLRLSCAASGIIFGKNAMGWYRHAPGKERELVAAISSSGGSTYYADSVKGRFTISRDNAKNTVYLQMNSLKPEDTAVYYCATERGSRRSGSRMDYWGQGTQVTVSS | high polyreactivity
18 | QVQLVESGGGLVQAGGSLRLSCAASGRTLPGYVMGWYRQEPGKERELVSTISSGDRTNYADSVKGRFTISRDNAKNTVYLQMNSLKPEETAVYYCAAPYVASGYYIWSPWLYDSWGQGTQVTVSS | low polyreactivity
19 | QVQLVESGGGLVQAGGSLRLSCAASGSTFKVNDMGWYRQAPGKERELVAAIDKSGGTTYYADSVKGRFTISRDNAKNTVYLQMNSLKPEDTAVYYCAADVIYEMDYWGQGTQVTVSS | low polyreactivity
20 | QVQLVDSGGGLVQAGGSLRLSCAASGIILVNNAMGWYRQAPGKEREFVAAIRYSAGSTYYADSVKGRFTISRDNAKTTVYLQMNSLKPEDTAVYYCNAVRYPTRGYYPYRYGYWGQGTQVNVSS | high polyreactivity
21 | QVQLVESGGGLVQAGGSLRLSCAASGIIFRYYAMGWYRQAPGKERELVASITARSGSTYYADSVKGRFTISRDNAKNTVYLQMNSLKPEDTAVYYCAKSGKPARYYYWGQGTQVTVSS | high polyreactivity
22 | QVQLVESGAGLVQAGGSLRLSCAASGYIFLRYAMGWSRQAPGKERELVAAIRGGSTNYADSVKGRFTISRDNAKNTVYLQMNSLKPEDTAVYYCAARGSKKQAYGYWGQGTQVTVSS | high polyreactivity

Row | Sequence | polyreactivity (PSR sort gate)
23 | QVQLVESGGGLVQAGGSLRLSCAASGSIFGSYAMGWYRQAPGTERELVAAIDWSGVGTYYADSVKGRFTISRDNANNTVYLQMNSLKPEDTAVYYCAAGVLRRDTELYYWGQGTQVTVSS | low polyreactivity
24 | QVQLVESGGGLVQAGGSLRLSCAASGFTFDYNAMGWYRQAPGKEREFVAAISSNGGSTYYADSVKGRFTISRDNAKNTVYFQMNSLKPEDTAVYYCAARYRSFVYWYGYWGQGTQVTVSS | high polyreactivity
25 | QVQLVESGGGLVQAGGSLRLSCAASGSTFWFNDMGWYRQAPGKEREFVAAISSIGGSTYYADSVKGRFTISRDNAKNTVYLQMNSLKPEDTAVYNCAVEVVRVYRYDYWGQGTQVTVSS | low polyreactivity
26 | QVQLVESRVGLVQAGGSLRLSCAASGIIFTLYAMGWYRQAPGKERELVAGIDASGGSTSYADSVKGRFTISRDNAKNTVYLQMNSLKPEVTAVYYCAARILPYGYDYWGQGTQVTVSS | low polyreactivity
27 | QVQLVESGGGLVQAGGSLRLSCAASGSIFYYTNTMGWYRQAPGKERELFAAISSSGGTTYADSVKGRFTISRDYSKNTVYLQMNSLKPEDSAVYYCALDCVLKTYVRGTYDYWGQGTQVTVSS | high polyreactivity
28 | QVQLVESGGGLVQAGGSLRLSCAASGRIYRINALGWYRQAPGKERELVATITSGGGSTYADSVKGRFTISRDNAKNTVYLQMNSLKPEDTAVYFCAARSRIGRYTYDYWGQGTQVTVSS | high polyreactivity
29 | QVQLVESGGGLVQAGGSLRLSCAASGRILTFYGMGWYRQAPGKERELVAAISNGGSTYYADSVKGRFTSSRDNAKNTVYLQMNSLKPEDTAVYYCAKRILTAPRRNSGYDYWGPGTQVTVSS | low polyreactivity
30 | QVQLVESGGGLVQEGGSLRLSCAASGFTFYWYAMGWYRQAPGKERELVAAITRSGSSTYYADSVKGRFTISRDNAKNTVYLQMNSLKPEDTEVYYCAALPYKPYYDAYDYWGQGTQVTVSS | high polyreactivity
31 | QVQLVESGGGLVQAGGSLSLSCAASGRTFKYYTMGWYRQAPGKERELVAAISASGGSTYYADSVKGRFTISRDNAKNTVYLQMNSLKPEDTAVYYCAKGANRAIHKQPTRSRLDSWGQGTQVTVSS | high polyreactivity
32 | QVQLVESGGGLVQAGGSLRLSCAASGSIFFDYAMGGYRQAPGKERELVAAINSGGTTNYADSVKGRFTISRDNAKNTVYLQMKQPETGRYRGLLLQRFPGYLRWYRWFDYWGQGTQVTVSS | low polyreactivity
33 | QVQLVESGGGLVQAGGRLRLSCAASGRIFSYNAMGWYRQAPGKERELVAGITSGGRTYYADSVKGRFTISRDNAKNTVYLLIYSLKPEDTAVYYCGARYVPARSGYYYWGQGTQVTVSS | high polyreactivity
34 | QVQLVESGGGLVQAGGSLRLSCAASGSIFWFNAMGWYRQAPGKERELVAAIRRIGGSTYYADSVKGRFTISRDNAKNTVYLQMNSLKPEDTAVYYCAAGVTFRGASYGYWGQGTQVTVSS | high polyreactivity
35 | QVQLVESGGGLVQAGGSLRLSCAASGFTFGRYAMGWYIQAPGKERELVAAINWSGTSTYYADSVKGRFTISRDNSKNTVYLQLNILKPEDTAVYYCAVRESGYHTTLYYWGQGTQVTVSS | high polyreactivity
36 | QVQLVESGGGLVQAGGSLRLSCAASGLIFQVYDMGWYRQAPGKERELVAAISSGSNTNYADSVKGRFTISRDNAKNTVYLQMNSLKPEDTAVYYCAASLGYGAMTPDMGYWGQVTQVTVSS | low polyreactivity
37 | QVQLVESGGGLVQAGGSLRLSCAASGRTFSGYAMGWYRQAPGKEREFVAAITSSGSSTYYADSVKWRFTISRVIAKNTVYLQMNSLKPEDTAVYYCAATPQAHSERYYYQRKYDYWGQGTQVTVSS | low polyreactivity
38 | QVQLVESGGGLVQAGGSLRLSCAASGLTFIIYAMGWYRQAPGKERELVARISSGGRTNYADSVKGRFTISRDYAKNTVYIQMNSLTPEDTAVYYCAAAFVYPYRHYYRYDYWGQATQVTVSS | high polyreactivity
39 | QVQLVESGGGIVQAGGSLRLSCAASGSIFPDNTMGWYRQAPGKERELVAAITGDGSTYYADSVKGRFTISRDNAKNTVYLERNSLKPEDTAVYYCAAASPSWSYWPRDYWGQGTQVTVSS | low polyreactivity
40 | QVQLVESGGGLVQAGGSLRLSCAASGGIFGGNAMGWYRQAPGQERELVAAISRSSGSTYYADSVKGRFTISRDNAKNTVYLQMNSLKPEDSAVYYCNVEGYGRRFDYWGQGTQVTVSS | high polyreactivity
41 | QVQLVESGGGLVQAGGSLRLSCSAYGFIFTGYAMGWYRQAPGKEREFVAAISYSGGSTYADSVKGRFTISRDNAKNSVYLQMNSLKPEDTAVYYCNARQGLWRYTAENDYWGQGTQVTVSS | low polyreactivity
42 | QVQLVESGGGLVQAGGSLRLSCAASGSIVKHYAMGWYRQAPGKERKLVATITRSGRTNYADSVKGRFTISRDNAKNTVYLQMNSLKPEDTAVYYCNTVRGGQSPHPVRYGYWGQGTQVTVSS | high polyreactivity
43 | QVQLVESGGGLVQAGGSLRLSCAASGFIISGYAMGWYRQAPGKERELVAAISWSGGRTYYADSVKGRFTISRDNAKNTVYLQMKSLKPEDTAVYYFAADGYYRDWYGYGYWGLGTQVTVSS | high polyreactivity
